Columns and labels:
ACS2-G = target: T1, ACS2-G (Pyrococcus furiosus, UniProt E7FHP1+Q8U3D6); conditions: reverse reaction; 20 mM acid, 1 mM ATP or GTP, 0.5 mM CoA, 2 mM MgCl2, pH 7.0, 80°C
T1 construct: gene acdAII

ACS4-G = target: T2, ACS4-G (Pyrococcus furiosus, UniProt E7FHP1+Q8U1W9); conditions: reverse reaction; 20 mM acid, 1 mM ATP or GTP, 0.5 mM CoA, 2 mM MgCl2, pH 7.0, 80°C
T2 construct: gene PF1085

ACS3-G = target: T3, ACS3-G (Pyrococcus furiosus, UniProt E7FHP1+Q8U461); conditions: reverse reaction; 20 mM acid, 1 mM ATP or GTP, 0.5 mM CoA, 2 mM MgCl2, pH 7.0, 80°C
T3 construct: gene PF0233

[1] = substrate: CC(=O)SCCNC(=O)CCNC(=O)[C@H](O)C(C)(C)COP(=O)(O)OP(=O)(O)OC[C@H]1O[C@@H](n2cnc3c(N)ncnc32)[C@H](O)[C@@H]1OP(=O)(O)O; experiment: DTNB assay of released CoASH, 96-well; format: biochemical, Pyrococcus furiosus; conditions: forward reaction, 2 mM ADP, 10 mM K2HPO4, 2 mM MgCl2, pH 7.0, 80°C
From the text: (§1) DTNB assay of released CoASH, 96-well on ACS5-A

[2] = substrate: CC(C)C(=O)SCCNC(=O)CCNC(=O)[C@H](O)C(C)(C)COP(=O)(O)OP(=O)(O)OC[C@H]1O[C@@H](n2cnc3c(N)ncnc32)[C@H](O)[C@@H]1OP(=O)(O)O; experiment: DTNB assay of released CoASH, 96-well; format: biochemical, Pyrococcus furiosus; conditions: forward reaction, 2 mM ADP, 10 mM K2HPO4, 2 mM MgCl2, pH 7.0, 80°C
From the text: as §1

[3] = substrate: CC(C)CC(=O)SCCNC(=O)CCNC(=O)[C@H](O)C(C)(C)COP(=O)(O)OP(=O)(O)OC[C@H]1O[C@@H](n2cnc3c(N)ncnc32)[C@H](O)[C@@H]1OP(=O)(O)O; experiment: DTNB assay of released CoASH, 96-well; format: biochemical, Pyrococcus furiosus; conditions: forward reaction, 2 mM ADP, 10 mM K2HPO4, 2 mM MgCl2, pH 7.0, 80°C
From the text: as §1

T3 sequence (Q8U461 1-465): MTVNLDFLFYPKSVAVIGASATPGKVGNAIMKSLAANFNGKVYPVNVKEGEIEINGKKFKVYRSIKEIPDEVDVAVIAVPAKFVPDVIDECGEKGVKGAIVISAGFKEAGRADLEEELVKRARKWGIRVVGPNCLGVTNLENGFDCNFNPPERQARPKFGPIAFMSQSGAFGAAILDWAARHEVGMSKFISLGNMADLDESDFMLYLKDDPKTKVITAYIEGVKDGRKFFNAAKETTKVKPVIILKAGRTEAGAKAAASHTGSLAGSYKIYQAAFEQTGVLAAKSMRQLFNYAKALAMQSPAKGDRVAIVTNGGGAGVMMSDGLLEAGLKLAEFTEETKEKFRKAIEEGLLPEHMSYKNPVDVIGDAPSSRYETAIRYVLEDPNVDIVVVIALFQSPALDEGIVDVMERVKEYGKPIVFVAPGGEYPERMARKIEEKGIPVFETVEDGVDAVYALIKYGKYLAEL
T3 sequence (E7FHP1 whole entry): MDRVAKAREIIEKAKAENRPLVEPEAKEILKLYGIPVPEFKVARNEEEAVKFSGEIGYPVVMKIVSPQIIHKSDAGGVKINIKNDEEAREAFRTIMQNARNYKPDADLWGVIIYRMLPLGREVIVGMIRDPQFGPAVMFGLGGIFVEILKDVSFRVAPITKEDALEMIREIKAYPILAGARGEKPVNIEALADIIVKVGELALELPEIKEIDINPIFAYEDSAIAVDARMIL
T2 sequence (Q8U1W9 1-442): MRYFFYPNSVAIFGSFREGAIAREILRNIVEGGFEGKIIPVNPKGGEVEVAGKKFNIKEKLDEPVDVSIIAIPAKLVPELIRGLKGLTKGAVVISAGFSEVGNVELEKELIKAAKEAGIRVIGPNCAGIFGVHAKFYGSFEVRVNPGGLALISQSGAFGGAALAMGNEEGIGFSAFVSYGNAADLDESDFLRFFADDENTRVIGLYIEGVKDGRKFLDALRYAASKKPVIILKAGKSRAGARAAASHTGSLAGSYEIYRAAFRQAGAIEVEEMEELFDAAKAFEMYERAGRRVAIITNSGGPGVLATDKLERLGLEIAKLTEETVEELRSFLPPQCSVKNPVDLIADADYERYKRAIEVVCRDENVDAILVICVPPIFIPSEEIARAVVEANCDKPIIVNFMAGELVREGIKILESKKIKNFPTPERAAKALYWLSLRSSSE
T2 sequence (E7FHP1 whole entry): as the sequence (E7FHP1 whole entry) above
T1 sequence (Q8U3D6 whole entry): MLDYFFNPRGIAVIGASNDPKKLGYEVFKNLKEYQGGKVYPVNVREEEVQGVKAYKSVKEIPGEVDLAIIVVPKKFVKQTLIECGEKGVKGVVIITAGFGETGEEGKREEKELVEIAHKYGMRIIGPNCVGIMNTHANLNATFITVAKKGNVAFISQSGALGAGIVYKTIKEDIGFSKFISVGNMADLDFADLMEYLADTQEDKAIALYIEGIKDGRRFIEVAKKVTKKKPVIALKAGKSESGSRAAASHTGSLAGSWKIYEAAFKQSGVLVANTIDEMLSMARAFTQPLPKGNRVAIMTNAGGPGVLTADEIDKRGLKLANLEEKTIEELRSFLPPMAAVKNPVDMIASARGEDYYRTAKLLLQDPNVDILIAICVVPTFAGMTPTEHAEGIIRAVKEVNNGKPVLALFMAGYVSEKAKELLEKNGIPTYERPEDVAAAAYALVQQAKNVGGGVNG
T1 sequence (E7FHP1 whole entry): as the sequence (E7FHP1 whole entry) above

In the case of CSCCC(=O)O [3-methylthiopropionate], the relative activity (ACS2-G) is reported as “Surprisingly, ACS2 was also active with 3-methylthiopropionate”.

For O=C(O)Cc1c[nH]cn1 [imidazole 4-acetate], the relative activity (ACS4-G) was “ACS4 was the only isoenzyme that shows significant activity with imidazole 4-acetate”.

For O=C(O)CCC(=O)O [succinate], the relative activity (ACS3-G) was “The only isoenzyme that showed activity with succinate was ACS3”.

B1: ACS5-A (Pyrococcus furiosus DSM 3638) (protein)
chain 1: MINNLDIKEQLRSFFDPKAVAIIGATNKKGKVGNVIFENFKRNKERGIFKGNIYPVNPKLDEIDGYKVYHSVEELPDDTDLAVVAIPAPAVPETMRKIAEKGIKAVVIITGGFGELGEEGKRMEQEILEIARAHGIRVIGPNCVGVYVPDTGVDTVFLPEEKMDRPKSGPIAFVSQSGAFAAAMLDWAAMAGIGIGKMVSYGNKIDVDDADLMEYFAQDEQIKVMTFYIEGVKDGRRFMEVAKRVTKIKPIIALKSGRTEYGAKAASSHTGSLAGQDVIYDAVFKQTGIIRAEDFEHMFDLAKAFAKCKLPKGDRIGIITDGGGAGVMASDAVAKFGLKLAELSEETLRFLREKFPPHAVVGNPTDVVGDTDAERYRLALEAFTKDPNVDAILVIVLFQVPLLDEEEVIEIIADYAKKSDKPIVAVSMGGYKTDRYAKMLEEKGVPVYPTPERGVRALAGLVRYAEYLRKMGE
chain 2: MKGEALKIIEEVLAQGRTAMVEYEAKQVLKAYGLPVPEEKLAKTLDEALKYAEEIGYPVAMKLMSPQILHKSDAKVVMLNIKSPEELKKKWEEIHENARKYRPDAEIFGVLIAPMLKPGREVIIGVTEDPQFGHAIMFGLGGIFVEILKDVTFRIIPITEKDARKMITEIKAYPILAGARGEEPADIEAIVDMLLKVSKLVDDLKDYIKEMDLNPVFVYRKGEGAVVVDARIILKG
notes: alpha (pET24a) and beta-A (pET21b) coexpressed in E. coli BL21(DE3) pRIL, untagged, heat-treated and desalted; alpha2beta2 ~140 kDa; The same primer pair is printed for PF1838 and PF1837 (probable misprint)
In the case of B1, the Km [1] is reported as 620 ± 1.0 µM, the kcat/Km [1] is reported as 112000 M⁻¹ s⁻¹ and the Km [2] is reported as 2730 ± 1080 µM. It also gave a kcat/Km [2] of 83000 M⁻¹ s⁻¹, a Km [3] of 820 ± 407 µM and a kcat/Km [3] of 120000 M⁻¹ s⁻¹.

— article PMC3942289, “Characterization of Ten Heterotetrameric NDP-Dependent Acyl-CoA Synthetases of the Hyperthermophilic Archaeon Pyrococcus furiosus” (Archaea, 2014)
